# T1: SPM-1 beta-lactamase (Pseudomonas aeruginosa, UniProt Q8G9Q0 29-276)
# T1 sequence: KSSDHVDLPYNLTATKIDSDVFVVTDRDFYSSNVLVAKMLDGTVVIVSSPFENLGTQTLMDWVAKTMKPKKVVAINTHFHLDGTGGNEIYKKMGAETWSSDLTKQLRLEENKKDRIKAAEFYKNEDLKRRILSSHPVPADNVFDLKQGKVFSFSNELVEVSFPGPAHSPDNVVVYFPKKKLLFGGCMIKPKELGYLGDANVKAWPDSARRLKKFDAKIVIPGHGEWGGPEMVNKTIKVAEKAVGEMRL
# Assays:
# VIM-1 beta-lactamase = VIM-1 beta-lactamase (UniProt A0A0F7KYQ8 21-266); assay: EMSA
# NDM-1 beta-lactamase = NDM-1 beta-lactamase (UniProt C7C422 29-270); assay: EMSA
# Sequence of NDM-1 beta-lactamase (C7C422 29-270): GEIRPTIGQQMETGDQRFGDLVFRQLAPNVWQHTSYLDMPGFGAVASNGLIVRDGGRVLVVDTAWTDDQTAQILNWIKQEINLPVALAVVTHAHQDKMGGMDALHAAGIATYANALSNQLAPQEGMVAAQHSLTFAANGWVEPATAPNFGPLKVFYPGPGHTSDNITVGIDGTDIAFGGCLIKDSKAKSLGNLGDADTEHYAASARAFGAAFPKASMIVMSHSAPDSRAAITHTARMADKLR
# IMP-1 beta-lactamase = IMP-1 beta-lactamase (UniProt P52699 19-246); assay: EMSA
# Sequence of IMP-1 beta-lactamase (P52699 19-246): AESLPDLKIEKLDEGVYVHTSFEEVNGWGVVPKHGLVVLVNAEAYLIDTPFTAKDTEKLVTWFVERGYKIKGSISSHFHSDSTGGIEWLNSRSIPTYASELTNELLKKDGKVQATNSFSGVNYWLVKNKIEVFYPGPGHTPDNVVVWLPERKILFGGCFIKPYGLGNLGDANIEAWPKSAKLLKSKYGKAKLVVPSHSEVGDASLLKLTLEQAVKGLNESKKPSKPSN
# SPM-1 beta-lactamase [1] = biological target: T1, SPM-1 beta-lactamase; assay: EMSA
# SPM-1 beta-lactamase [2] = biological target: T1, SPM-1 beta-lactamase; assay: NMR
Binder,binding result (VIM-1 beta-lactamase),binding result (NDM-1 beta-lactamase),binding result (IMP-1 beta-lactamase),binding result (SPM-1 beta-lactamase [1]),binding result (SPM-1 beta-lactamase [2])
"GGGAGAUGCUAGAGAUUCGGUGGGACACCCGUCUCCC (XNA, 2'-fluoro at all pyrimidines (C, U)) [S25 2'-FY]",no binding,no binding,no binding,binds,–
GGGAGAUGCUAGAGAUUCGGUGGGACACCCUUCUCCC (structured_RNA) [S30 RNA (S25 G31U)],–,–,–,–,binds
GGGAGAUGCUAGAGAUUCGGUGGGACACCCGUCUCCC (structured_RNA) [S25 RNA],–,–,–,–,binds

# — publication doi:10.1101/2024.08.16.608213
